According to patent publication US6495314 (Scripps Research, dated 2002):
No end group written: not given here.

B1: Ac-CWAcp-PPPALPPKKR.amide, C3G-derived peptide designed for attachment to an affinity column (peptide)
peptide: CWPPPALPPKKR
modifications: N-terminal acetyl; ε-aminocaproic acid (Acp, B) at position 3; C-terminal amide; on the column the Cys side chain is coupled to iodoacetyl agarose (Sulfolink)
notes: also called Acetyl-CWAcp-C3G; Ac-CWBPPPALPPKKR.amide
B2: control peptide Ac-CAcpYGGFL.amide (YGGFL = leucine enkephalin) (peptide)
peptide: Ac-CYGGFL-NH2
modifications: not fully specified (residue 1); also: Cys side chain coupled to Sulfolink agarose
notes: also called Ac-CBYGGFL.amide; Leucine-Enkephalin agarose column

How the values were obtained:
[1] = molecular target: T1, synthetic murine cCrk N-terminal SH3 domain (residues 134-191) (murine, UniProt Q64010 134-191); assay: tryptophan fluorescence titration in solution, 12 hours incubation
T1 construct: Made by total chemical synthesis and folded in HEPES/NaCl buffer; also called cCrk(134-191); c-Crk SH3
Protocol: (§1) The resulting synthetic protein domain was then assayed for its affinity for two different proline-rich peptides. […] This change in solvent exposure leads to an increase in the fluorescence intensity of the tryptophan sidechain which can be monitored as a function of increasing ligand concentration (Feng et al. *Science* 1994.266, 1241–1245).
(§2) 1994, 3, 1261–1266. The purified and lyophilized 58 residue polypeptide chain (0.2 mg) was folded by dissolving in 0.6 mL of 20 mM Hepes, 60 mM NaCl, pH 7.3 to produce a folded protein solution (~50 μM).

[2] = molecular target: BSA (UniProt P02769 25-607); assay: C3G peptide affinity column, stepwise NaCl washes, A280 and mass spectrometry
Protocol: The column was washed with 4 mL each of 50 mM NaCl, 100 mM NaCl, 200 mM NaCl, 300 mM NaCl, 400 mM NaCl, 500 mM NaCl and 1000 mM NaCl, 0.1 M phosphate, pH 7.0 buffer. The column was then washed with 1 M NH_2OH 200 mM NH_4CO_3 pH 6.0 (4 mL) and finally eluted in 6M Gn.HCl 100 mM phosphate pH 6.5 (4 mL). Samples from all column fractions were monitored by absorbance at 280 nm and by HPLC.

[3] = molecular target: T1, synthetic murine cCrk N-terminal SH3 …; assay: in solution; method not stated in the legend
Protocol: as §1, §2
Target sequence in this assay (Q64010 134-191 limits assumed): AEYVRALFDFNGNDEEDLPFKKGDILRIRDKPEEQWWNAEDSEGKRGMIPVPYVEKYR

[4] = molecular target: B1; assay: Gly-[COS]-Gly array on C3G peptide affinity column, MALDI MS readout (FIG. 27A)
[5] = molecular target: T1, synthetic murine cCrk N-terminal SH3 …; assay: control peptide affinity column
[6] = molecular target: B1; assay: 19-member array on C3G peptide affinity column, MALDI MS readout
[7] = molecular target: B2; assay: nine-member array on control peptide column, A280
Protocol: The column was then washed with 0.5 M NaCl buffer to remove nonspecific binding proteins from the column. Specifically bound protein analogues were then eluted with 1 M hydroxylamine bufffer. Amounts of eluted peptide were monitored by UV absorbance at 280 nm. This procedure was used for both the C3G peptide column and for the control column loaded with Ac-C-AcpYGGFL.amide.
Affinity chromatography of the arrays of protein analogues was carried out as follows. […] After incubation at room temperature for a period of 6–8 hours the column was washed with 0.5 M NaCl in 0.1 M sodium phosphate, pH 7.0 buffer (6×1 mL) to remove any non-specifically bound proteins. The first two 1 mL fractions were collected and immediately mixed with an equal volume of 1 M NH_2OH, 20 mM NH_4HCO_3, pH 5.5 buffer to cleave any thioester-containing protein analogues. […] Samples of the eluted fractions were monitored by UV absorbance at 280 nm. This procedure was used for both the C3G peptide column and for the control column loaded with Ac-C-Acp-YGGFL.amide. To accommodate MALDI analysis, both the 0.5M NaCl wash and 1 M NH_2OH fractions were desalted on a low pressure, disposable C-18 column, washed with HPLC buffer A and peptide fragments eluted with 1.5 mL 60% acetonitrile in water, 0.1% TFA.

Chain of BSA (P02769 25-607 limits assumed): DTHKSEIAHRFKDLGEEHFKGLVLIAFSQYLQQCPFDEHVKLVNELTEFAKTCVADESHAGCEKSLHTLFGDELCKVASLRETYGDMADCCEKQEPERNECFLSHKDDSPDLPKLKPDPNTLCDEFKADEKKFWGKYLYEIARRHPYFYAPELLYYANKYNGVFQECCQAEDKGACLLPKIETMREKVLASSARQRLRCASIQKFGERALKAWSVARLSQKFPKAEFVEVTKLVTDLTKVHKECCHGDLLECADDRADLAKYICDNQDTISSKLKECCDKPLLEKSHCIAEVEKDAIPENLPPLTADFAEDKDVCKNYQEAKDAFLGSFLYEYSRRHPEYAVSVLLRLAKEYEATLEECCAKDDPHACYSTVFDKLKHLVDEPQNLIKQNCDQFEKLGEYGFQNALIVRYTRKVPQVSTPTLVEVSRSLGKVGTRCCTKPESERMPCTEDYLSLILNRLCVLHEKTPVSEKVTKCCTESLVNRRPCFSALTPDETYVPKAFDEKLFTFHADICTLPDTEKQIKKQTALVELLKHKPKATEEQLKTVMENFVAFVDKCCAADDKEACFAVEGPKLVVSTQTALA

| binding result [4] | Binder | other results |
| --- | --- | --- |
| – | B1 | Kd [1]: 2400 nM; binding result [2]: no binding |
| – | PPPALPPKKR-NH2 (also called C3G peptide) [C3G-derived peptide PPPALPPKKR.amide] | Kd [1]: 1800 nM; Kd [3]: 2300 nM |
| binds | c-Crk N-terminal SH3 domain (134-191) analogue, dipeptide KP (164-165) replaced by Gly-[COS]-Gly (other, not fully specified; Gly-[COS]-Gly unit (-NHCH2CO-SCH2CO-) in place of K164-P165; backbone thioester (S in place of the NH of residue 165), Member of the nine-member Gly-[COS]-Gly array over cCrk(156-165); Positions count on murine c-Crk; also called KP (Gly-[COS]-Gly array)) AEYVRALFDFNGNDEEDLPFKKGDILRIRDGGEEQWWNAEDSEGKRGMIPVPYVEKYR | – |
| binds | c-Crk N-terminal SH3 domain (134-191) analogue, dipeptide IR (161-162) replaced by Gly-[COS]-Gly (other, not fully specified; Gly-[COS]-Gly unit (-NHCH2CO-SCH2CO-) in place of I161-R162; backbone thioester (S in place of the NH of residue 162), Member of the nine-member Gly-[COS]-Gly array over cCrk(156-165); Positions count on murine c-Crk; also called IR (Gly-[COS]-Gly array)) AEYVRALFDFNGNDEEDLPFKKGDILRGGDKPEEQWWNAEDSEGKRGMIPVPYVEKYR | – |
| binds | c-Crk N-terminal SH3 domain (134-191) analogue, dipeptide RI (160-161) replaced by Gly-[COS]-Gly (other, not fully specified; Gly-[COS]-Gly unit (-NHCH2CO-SCH2CO-) in place of R160-I161; backbone thioester (S in place of the NH of residue 161), Member of the nine-member Gly-[COS]-Gly array over cCrk(156-165); Positions count on murine c-Crk; also called RI (Gly-[COS]-Gly array)) AEYVRALFDFNGNDEEDLPFKKGDILGGRDKPEEQWWNAEDSEGKRGMIPVPYVEKYR | – |
| binds | c-Crk N-terminal SH3 domain (134-191) analogue, dipeptide LR (159-160) replaced by Gly-[COS]-Gly (other, not fully specified; Gly-[COS]-Gly unit (-NHCH2CO-SCH2CO-) in place of L159-R160; backbone thioester (S in place of the NH of residue 160), Member of the nine-member Gly-[COS]-Gly array over cCrk(156-165); Positions count on murine c-Crk; also called LR (Gly-[COS]-Gly array)) AEYVRALFDFNGNDEEDLPFKKGDIGGIRDKPEEQWWNAEDSEGKRGMIPVPYVEKYR | – |
| binds | c-Crk N-terminal SH3 domain (134-191) analogue, dipeptide DI (157-158) replaced by Gly-[COS]-Gly (other, not fully specified; Gly-[COS]-Gly unit (-NHCH2CO-SCH2CO-) in place of D157-I158; backbone thioester (S in place of the NH of residue 158), Member of the nine-member Gly-[COS]-Gly array over cCrk(156-165); Positions count on murine c-Crk; also called DI (Gly-[COS]-Gly array)) AEYVRALFDFNGNDEEDLPFKKGGGLRIRDKPEEQWWNAEDSEGKRGMIPVPYVEKYR | – |
| binds | c-Crk N-terminal SH3 domain (134-191) analogue, dipeptide GD (156-157) replaced by Gly-[COS]-Gly (other, not fully specified; Gly-[COS]-Gly unit (-NHCH2CO-SCH2CO-) in place of G156-D157; backbone thioester (S in place of the NH of residue 157), Member of the nine-member Gly-[COS]-Gly array over cCrk(156-165); G156 stays Gly; Positions count on murine c-Crk; also called GD (Gly-[COS]-Gly array)) AEYVRALFDFNGNDEEDLPFKKGGILRIRDKPEEQWWNAEDSEGKRGMIPVPYVEKYR | – |
| binds | c-Crk N-terminal SH3 domain (134-191) analogue, dipeptide IL (158-159) replaced by Gly-[COS]-Gly (other, not fully specified; Gly-[COS]-Gly unit (-NHCH2CO-SCH2CO-) in place of I158-L159; backbone thioester (S in place of the NH of residue 159), Member of the nine-member Gly-[COS]-Gly array over cCrk(156-165); Positions count on murine c-Crk; also called IL (Gly-[COS]-Gly array)) AEYVRALFDFNGNDEEDLPFKKGDGGRIRDKPEEQWWNAEDSEGKRGMIPVPYVEKYR | – |
| binds | c-Crk N-terminal SH3 domain (134-191) analogue, dipeptide DK (163-164) replaced by Gly-[COS]-Gly (other, not fully specified; Gly-[COS]-Gly unit (-NHCH2CO-SCH2CO-) in place of D163-K164; backbone thioester (S in place of the NH of residue 164), Member of the nine-member Gly-[COS]-Gly array over cCrk(156-165); Positions count on murine c-Crk; also called DK (Gly-[COS]-Gly array)) AEYVRALFDFNGNDEEDLPFKKGDILRIRGGPEEQWWNAEDSEGKRGMIPVPYVEKYR | – |
| binds | c-Crk N-terminal SH3 domain (134-191) analogue, dipeptide RD (162-163) replaced by Gly-[COS]-Gly (other, not fully specified; Gly-[COS]-Gly unit (-NHCH2CO-SCH2CO-) in place of R162-D163; backbone thioester (S in place of the NH of residue 163), Member of the nine-member Gly-[COS]-Gly array over cCrk(156-165); Positions count on murine c-Crk; also called RD (Gly-[COS]-Gly array)) AEYVRALFDFNGNDEEDLPFKKGDILRIGGKPEEQWWNAEDSEGKRGMIPVPYVEKYR | – |
| – | B2 | binding result [5]: no binding |
| – | c-Crk N-terminal SH3 domain (134-191) analogue, L^151P^152 replaced by Gly-[COS]-βAla (other, not fully specified; Gly-[COS]-βAla unit (-NH-CH2-CO-S-CH2-CH2-CO-) in place of L151-P152; backbone thioester, Positions count on murine c-Crk; X = -S-CH2CH2-CO- unit; Tested crude in a pooled array; also called LP) AEYVRALFDFNGNDEEDGXFKKGDILRIRDKPEEQWWNAEDSEGKRGMIPVPYVEKYR | binding result [6]: binds |
| – | c-Crk N-terminal SH3 domain (134-191) analogue, N^146D^147 replaced by Gly-[COS]-βAla (other, not fully specified; Gly-[COS]-βAla unit (-NH-CH2-CO-S-CH2-CH2-CO-) in place of N146-D147; backbone thioester, Positions count on murine c-Crk; X = -S-CH2CH2-CO- unit; Tested crude in a pooled array; also called ND) AEYVRALFDFNGGXEEDLPFKKGDILRIRDKPEEQWWNAEDSEGKRGMIPVPYVEKYR | binding result [6]: binds |
| – | c-Crk N-terminal SH3 domain (134-191) analogue, dipeptide LR (159-160) replaced by Gly-[COS]-βAla (other, not fully specified; Gly-[COS]-βAla unit (-NH-CH2-CO-S-CH2-CH2-CO-) in place of L159-R160; backbone thioester, Positions count on murine c-Crk; X = -S-CH2CH2-CO- unit; also called Gly-SβAla analogue) AEYVRALFDFNGNDEEDLPFKKGDIGXIRDKPEEQWWNAEDSEGKRGMIPVPYVEKYR | binding result [6]: no binding; binding result [7]: no binding |
